“And” between values parts separate entries of the source, which are not always exact repeats. Equal values may be shown once.
B1: TCR-10 (TCR, V domains shown)
Valpha: QNIDQPTEMTATEGAIVQINCTYQTSGFNGLFWYQQHAGEAPTFLSYNVLDGLEEKGRFSSFLSRSKGYSYLLLKELQMKDSASYLCAVPAPYTGTASKLTFGTGTRLQVTL
Vbeta: GVTQTPKFQVLKTGQSMTLQCAQDMNHNSMYWYRQDPGMGLRLIYYSASEGTTDKGEVPNGYNVSRLNKREFSLRLESAAPSQTSVYFCASSEGYSTYNEQFFGPGTRLTVL
B2: TCR-11 (TCR, V domains shown)
Valpha: IQVEQSPPDLILQEGANSTLRCNFSDSVNNLQWFHQNPWGQLINLFYIPSGTKQNGRLSATTVATERYSLLYISSSQTTDSGVYFCAVNTGTASKLTFGTGTRLQVTL
Vbeta: GVTQTPKFQVLKTGQSMTLQCAQDMNHNSMYWYRQDPGMGLRLIYYSASEGTTDKGEVPNGYNVSRLNKREFSLRLESAAPSQTSVYFCASSPRGQGRSYEQYFGPGTRLTVT
B3: TCR-12 (TCR, V domains shown)
Valpha: QLLEQSPQFLSIQEGENLTVYCNSSSVFSSLQWYRQEPGEGPVLLVTVVTGGEVKKLKRLTFQFGDARKDSSLHITAAQPGDTGLYLCAGGLSDSYDKVIFGPGTSLSVIP
Vbeta: EVTQTPKHLVMGMTNKKSLKCEQHMGHRAMYWYKQKAKKPPELMFVYSYEKLSINESVPSRFSPECPNSSLLNLHLHALQPEDSALYLCASSQGVGQEYGYTFGSGTRLTVV
B4: TCR-14 (TCR, V domains shown)
Valpha: QKITQTQPGMFVQEKEAVTLDCTYDTSDQSYGLFWYKQPSSGEMIFLIYQGSYDEQNATEGRYSLNFQKARKSANLVISASQLGDSAMYFCAINGLPGSARQLTFGSGTQLTVLP
Vbeta: GVAQSPRYKIIEKRQSVAFWCNPISGHATLYWYQQILGQGPKLLIQFQNNGVVDDSQLPKDRFSAERLKGVDSTLKIQPAKLEDSAVYLCASSRFVATGTSPLHFGNGTRLTVT
B5: TCR-5 (TCR, V domains shown)
Valpha: QQLNQSPQSMFIQEGEDVSMNCTSSSIFNTWLWYKQDPGEGPVLLIALYKAGELTSNGRLTAQFGITRKDSFLNISASIPSDVGIYFCAGGYNYGQNFVFGPGTRLSVLP
Vbeta: GVTQTPKHLITATGQRVTLRCSPRSGDLSVYWYQQSLDQGLQFLIQYYNGEERAKGNILERFSAQQFPDLHSELNLSSLELGDSALYFCASSAGLAGGYEQYFGPGTRLTVT
B6: TCR-6 (TCR, V domains shown)
Valpha: QKEVEQDPGPLSVPEGAIVSLNCTYSNSAFQYFMWYRQYSRKGPELLMYTYSSGNKEDGRFTAQVDKSSKYISLFIRDSQPSDSATYLCAMSGNSGARDYGNNRLAFGKGNQVVVIP
Vbeta: EVTQTPKHLVMGMTNKKSLKCEQHMGHRAMYWYKQKAKKPPELMFVYSYEKLSINESVPSRFSPECPNSSLLNLHLHALQPEDSALYLCASATWEEAGPYNEQFFGPGTRLTVL
B7: TCR-7 (TCR, V domains shown)
Valpha: QTVTQSQPEMSVQEAETVTLSCTYDTSESDYYLFWYKQPPSRQMILVIRQEAYKQQNATENRFSVNFQKAAKSFSLKISDSQLGDAAMYFCTFRYGGATNKLIFGTGTLLAVQP
Vbeta: GVIQSPRHLIKEKRETATLKCYPIPRHDTVYWYQQGPGQDPQFLISFYEKMQSDKGSIPDRFSAQQFSDYHSELNMSSLELGDSALYFCASRGGWAETPDTQYFGPGTRLTVL

Assays:
[1] = biological target: CT45-IP antigenic peptide (…) in complex with HLA-A*02 presented on cells (peptide-loaded T2 cells; NCIH1703 and A375 tumor cells) (human); assay: cell-based or functional assay
[2] = biological target: T1, similar peptide SP-05-0002, source protein not stated peptide on HLA-A*02:01 (human); assay: killing
T1 peptide: KIFSGLLKV

[3] = biological target: T2, similar peptide SP-05-0003, source protein not stated peptide on HLA-A*02:01 (human); assay: killing
T2 peptide: KVTEMLVNV

[4] = biological target: T3, similar peptide SP-05-0004, source protein not stated peptide on HLA-A*02:01 (human); assay: killing
T3 peptide: KIWEWLVGV

[5] = biological target: T4, similar peptide SP-05-0005, source protein not stated peptide on HLA-A*02:01 (human); assay: killing
T4 peptide: KIEEFLEAV

[6] = biological target: T5, similar peptide SP-05-0006, source protein not stated peptide on HLA-A*02:01 (human); assay: killing
T5 peptide: KIAELLENV

[7] = biological target: T6, similar peptide SP-05-0007, source protein not stated peptide on HLA-A*02:01 (human); assay: killing
T6 peptide: KIFPALCTV

[8] = biological target: T7, similar peptide SP-05-0008, source protein not stated peptide on HLA-A*02:01 (human); assay: killing
T7 peptide: KILDELEKV

[9] = biological target: T8, similar peptide SP-05-0009, source protein not stated peptide on HLA-A*02:01 (human); assay: killing
T8 peptide: KIIDLLPKV

[10] = biological target: T9, similar peptide SP-05-0010, source protein not stated peptide on HLA-A*02:01 (human); assay: killing
T9 peptide: RIFETVNSV

[11] = biological target: T10, CT45-IP alanine variant, position 1 peptide on HLA-A*02:01 (human); assay: killing
T10 peptide: AIFEMLEGV

[12] = biological target: T11, CT45-IP alanine variant, position 3 peptide on HLA-A*02:01 (human); assay: killing
T11 peptide: KIAEMLEGV

[13] = biological target: T12, CT45-IP alanine variant, position 4 peptide on HLA-A*02:01 (human); assay: killing
T12 peptide: KIFAMLEGV

[14] = biological target: T13, CT45-IP alanine variant, position 8 peptide on HLA-A*02:01 (human); assay: killing
T13 peptide: KIFEMLEAV

[15] = biological target: T14, similar peptide SP-05-0001, source protein not stated peptide on HLA-A*02:01 (human); assay: killing
T14 peptide: HIMEHLEGV

[16] = biological target: CT45-IP-HLA-A*02 dextramer (human); assay: flow cytometry, dextramer staining of TCR-mRNA electroporated T cells, gated on CD3+
[17] = biological target: T15, CT45 (CT45A1, A2, A3, A5 to A10); CT45-IP peptide on HLA-A*02:01 (human); assay: luciferase release, 24 h, 1:1; CD8+ T cells with TCR mRNA, T2 cells with titrated peptide; full-length, on cells
T15 peptide: KIFEMLEGV

[18] = biological target: T15, CT45 (CT45A1, A2, A3, A5 to A10); …; assay: CT45-IP-HLA-A*02 dextramer on T cells with TCR mRNA; TCR found by tetramer sorting; full-length, on cells
[19] = biological target: T16, CT45-IP alanine variant, position 7 peptide on HLA-A*02:01 (human); assay: killing
T16 peptide: KIFEMLAGV

[20] = biological target: T17, CT45-IP alanine variant, position 5 peptide on HLA-A*02:01 (human); assay: killing
T17 peptide: KIFEALEGV

[21] = biological target: T18, CT45-IP alanine variant, position 6 peptide on HLA-A*02:01 (human); assay: killing
T18 peptide: KIFEMAEGV

Binder | EC50, half maximal killing capacity (functional avidity; CT45-IP peptide titration on T2 cells, luciferase release) [1] [nM] | binding result [2] | binding result [3] | binding result [4] | binding result [5] | binding result [6] | binding result [7] | binding result [8] | binding result [9] | binding result [10] | binding result [11] | binding result [14] | binding result [15] | surface expression, % positive events by CT45-IP-HLA-A2*02 dextramer staining [16] | EC50 of peptide [17] [nM] | dextramer-positive events [18] [%] | binding result [19] | binding result [20] | other results
B1 | 8.75 | no recognition | no recognition | no recognition | no recognition | no recognition | no recognition | no recognition | no recognition | no recognition | recognises | recognises | no recognition | 52.8% | 8.75 | 52.8 |  |  | binding result [12]: recognises; binding result [13]: recognises
B2 | 59.5 | no recognition | no recognition | no recognition | no recognition | no recognition | no recognition | no recognition | no recognition | no recognition |  |  | no recognition | 0.53% and 6.6% | 59.5 | 6.6 | recognises |  | 
B3 | 47.5 | no recognition | no recognition | no recognition | no recognition | no recognition | no recognition | no recognition | no recognition | no recognition | recognises | recognises | no recognition | 20.1% | 47.5 | 20.1 |  | recognises | 
B4 | 17.7 | no recognition | no recognition | no recognition | no recognition | no recognition | no recognition | no recognition | no recognition | no recognition |  | recognises | no recognition | 11.6% | 17.7 | 11.6 | recognises |  | binding result [21]: recognises
B5 | 1.32 | no recognition | no recognition | no recognition | no recognition | no recognition | no recognition | no recognition | no recognition | no recognition | recognises |  | no recognition | 55.5% and 61.1% | 1.32 | 61.1 |  | recognises | binding result [13]: recognises
B6 | 3.25 | no recognition | no recognition |  | no recognition | no recognition | no recognition | no recognition | no recognition | no recognition |  | recognises | no recognition | 2.9% | 3.25 | 2.9 | recognises | recognises | 
B7 | 0.48 | no recognition | no recognition | no recognition | no recognition | no recognition | no recognition | no recognition | no recognition | no recognition |  | recognises | no recognition | 53.3% | 0.48 | 53.3 |  | recognises | binding result [12]: recognises

Reference: patent US20230057987A1 (published 2023)
